Measured values published in the RNAGym collection of RNA variant scans (doi:10.7554/elife.90254).

B1: LINE1-full (parent)
chain: UACGUAGGUGGUUUUCCCCUGAUAGUGCUAAGGGGGCCUGGAAGUUUGGACUGGGCAGAGCUCAACACAGCGUGGCAAAGUGGCUGUGGCUAGACUGCCUCUCUGGAUUCCUCGUCACUCAGCAGGGCAUCUCUGAGAGAAAUGCC

Variants of: B1
Assay: self-cleavage, relative activity (ratio to wild type); higher = more cleavage; in vitro, sequencing; the parent is a self-cleaving ribozyme

Variant	self-cleavage
U45G A107U	1.05
U45G A117G	0
U45G A140G	1.33
U45G A142G	2.33
U45G C113U	0.88
U45G G55C	0.08
U45G G83A	0.54
U45G G88U	0.06
U45G U47C	1.92
U45G U81A	1.82
U45G U85G	0.28
U45G U87C	0.25
U45G U96A	0.03
U45G U102A	1.73
U45G U108C	1.91
U45G U112C	1.38
U45G U130C	2.36
U45G U132A	0.86
U46A	1.17
U46A A50G	0.87
U46A A59G	0.07
U46A A64G	0.18
U46A A64U	0.46
U46A A65G	0.02

Variant	self-cleavage
U46A A77U	1.24
U46A A78G	0.69
U46A A78U	2.19
U46A A107C	1.99
U46A A117G	1.78
U46A A117U	1.46
U46A A121G	1.15
U46A A129G	1.16
U46A A136U	1.18
U46A A138G	1.66
U46A A142U	1.19
U46A C51U	1.35
U46A C145U	1.52
U46A C146A	1.53
U46A G54A	0.37
U46A G58A	0.04
U46A G89C	0.03
U46A G114C	1.56
U46A G125A	2
U46A U52A	1.87
U46A U62A	0.04
U46A U81C	1.15
U46A U85A	0.06
U46A U85C	0.08

Variant	self-cleavage
U46A U87A	0.03
U46A U91A	0.62
U46A U96A	0.05
U46A U100C	1.75
U46A U102C	1.28
U46A U104C	1.96
U46A U112A	1.37
U46A U112C	1.28
U46A U115A	1.26
U46A U115C	1.72
U46A U119A	1.42
U46A U130C	1.88
U46A U132A	1.09
U46A U134A	0.77
U46A U134G	0.84
U46A U143A	1.38
U46C	1.41
U46C A50G	1.59
U46C A57U	0.17
U46C A64U	0.55
U46C A65G	0.06
U46C A65U	0.24
U46C A67C	0.05
U46C A77G	2.46

Variant	self-cleavage
U46C A77U	1.51
U46C A78C	1.9
U46C A78G	1.62
U46C A79G	1.29
U46C A79U	1.83
U46C A92G	0.29
U46C A94C	0.1
U46C A117G	1.78
U46C A117U	1.78
U46C A121C	1.9
U46C A121G	1.64
U46C A124G	1.54
U46C A124U	1.25
U46C A129G	2.35
U46C A129U	1.27
U46C A136G	1.21
U46C A138U	1.65
U46C A140G	1.41
U46C A140U	1.46
U46C C56U	0.5
U46C C71G	0.96
U46C C71U	1.11
U46C C84U	0.2
U46C C95U	0.23

Variant	self-cleavage
U46C C103A	1.58
U46C C113U	1.53
U46C C120A	0.85
U46C C120U	1.57
U46C C133U	1.13
U46C G48A	1.04
U46C G49A	1.4
U46C G53A	1.54
U46C G58U	0.05
U46C G72A	0.92
U46C G72U	1.35
U46C G74A	0.52
U46C G80A	2.95
U46C G93U	0.06
U46C G97A	0.23
U46C G106A	1.22
U46C G106U	0.84
U46C G114A	1.22
U46C G114U	1.12
U46C G122A	1.6
U46C G125C	1.44
U46C G139A	1.23
U46C G144A	2.24
U46C U47G	1.53

Variant	self-cleavage
U46C U52C	1.26
U46C U62C	0.02
U46C U73A	1.68
U46C U73C	2.17
U46C U81A	2.18
U46C U81G	0.54
U46C U85A	0.14
U46C U87G	0.55
U46C U91C	0.99
U46C U91G	0.09
U46C U96A	0.08
U46C U96C	0.3
U46C U100A	1.22
U46C U104A	1.11
U46C U109A	1.41
U46C U115C	1.66
U46C U132A	2.44
U46C U132C	1.61
U46C U132G	1.91
U46C U143A	1.44
U46C U143C	1.52
U46C U143G	1.41
U46G	1.25
U46G A65G	0.05

Variant	self-cleavage
U46G A67G	0.32
U46G A79G	1.23
U46G A107G	1.15
U46G A117U	2.76
U46G A136G	1.96
U46G A136U	1.34
U46G C103A	1.25
U46G G53U	1.73
U46G G60C	0
U46G G89A	0.04
U46G G114A	1.18
U46G U62C	0
U46G U73C	1.02
U46G U87C	0
U46G U96C	0.74
U46G U102C	1.19
U46G U112C	1.48
U46G U112G	0
U46G U143C	1.43
U47A	1.22
U47A A50G	1.2
U47A A57C	0.06
U47A A57U	0.08
